# Source: article PMC11700292, “Specific inhibition of fibroblast growth factor receptor 1 signaling by a DNA aptamer”
# T1: FGFR4 extracellular domain-Fc (human, UniProt P22455 22-369)
# T1 sequence: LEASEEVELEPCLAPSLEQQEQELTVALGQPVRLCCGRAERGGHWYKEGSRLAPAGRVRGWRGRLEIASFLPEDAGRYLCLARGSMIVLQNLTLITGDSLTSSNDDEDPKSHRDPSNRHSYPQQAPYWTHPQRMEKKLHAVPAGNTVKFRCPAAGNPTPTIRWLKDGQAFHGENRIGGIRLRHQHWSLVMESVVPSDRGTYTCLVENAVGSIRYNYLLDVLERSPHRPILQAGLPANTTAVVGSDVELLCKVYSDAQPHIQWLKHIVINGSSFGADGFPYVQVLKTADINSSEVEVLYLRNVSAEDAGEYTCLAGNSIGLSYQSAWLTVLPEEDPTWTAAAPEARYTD
# Legend:
# [1] = molecular target: FGFR1b extracellular domain-Fc (human) (UniProt P11362); assay: BLI; details: BLI (Octet K2, protein A sensor, FGFR-Fc 5 ug/mL), VZ23 31.25-500 nM in PBS (8.1 mM Na2HPO4, 1.5 mM NaH2PO4, 137 mM NaCl, 2.7 mM KCl as given for NMR) with or …
# Sequence of FGFR1b extracellular domain-Fc (human) (P11362 whole entry, the tested form may be a part): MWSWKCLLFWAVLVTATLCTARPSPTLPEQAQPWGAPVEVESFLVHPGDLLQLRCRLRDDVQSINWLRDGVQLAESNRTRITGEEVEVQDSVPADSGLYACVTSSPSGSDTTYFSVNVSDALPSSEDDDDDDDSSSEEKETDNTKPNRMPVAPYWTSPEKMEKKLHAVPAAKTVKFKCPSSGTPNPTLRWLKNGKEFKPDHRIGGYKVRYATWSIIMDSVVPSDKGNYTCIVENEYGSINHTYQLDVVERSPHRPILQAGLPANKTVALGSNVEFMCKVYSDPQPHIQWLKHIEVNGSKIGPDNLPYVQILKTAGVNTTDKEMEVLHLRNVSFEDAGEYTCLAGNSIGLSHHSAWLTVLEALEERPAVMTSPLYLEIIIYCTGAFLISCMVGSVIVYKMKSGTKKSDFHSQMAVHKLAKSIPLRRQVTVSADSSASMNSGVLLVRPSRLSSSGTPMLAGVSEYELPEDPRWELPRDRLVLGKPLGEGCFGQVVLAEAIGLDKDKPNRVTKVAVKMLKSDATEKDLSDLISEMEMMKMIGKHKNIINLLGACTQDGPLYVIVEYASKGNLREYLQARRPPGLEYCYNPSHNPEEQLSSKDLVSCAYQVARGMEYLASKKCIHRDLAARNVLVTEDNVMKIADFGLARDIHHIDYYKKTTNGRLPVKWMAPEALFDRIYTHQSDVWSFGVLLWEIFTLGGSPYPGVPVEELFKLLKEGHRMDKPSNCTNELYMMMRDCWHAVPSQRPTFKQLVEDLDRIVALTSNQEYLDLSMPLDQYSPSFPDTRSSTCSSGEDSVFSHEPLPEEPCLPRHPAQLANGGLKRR
# [2] = molecular target: FGFR3c extracellular domain-Fc (human, UniProt P22607 23-375); assay: BLI; BLI (Octet K2, protein A sensor, FGFR-Fc 5 ug/mL), VZ23 31.25-500 nM in PBS (8.1 mM Na2HPO4, 1.5 mM NaH2PO4, 137 mM NaCl, 2.7 mM KCl as given for NMR) with or without 2 mM MgCl2; pH 7.3 (stated for CD); temperature not stated; details: protein: recombinant; tags: IgG1 Fc fusion; antiparallel G-quadruplex-like fold
# Sequence of FGFR3c extracellular domain-Fc (P22607 23-375): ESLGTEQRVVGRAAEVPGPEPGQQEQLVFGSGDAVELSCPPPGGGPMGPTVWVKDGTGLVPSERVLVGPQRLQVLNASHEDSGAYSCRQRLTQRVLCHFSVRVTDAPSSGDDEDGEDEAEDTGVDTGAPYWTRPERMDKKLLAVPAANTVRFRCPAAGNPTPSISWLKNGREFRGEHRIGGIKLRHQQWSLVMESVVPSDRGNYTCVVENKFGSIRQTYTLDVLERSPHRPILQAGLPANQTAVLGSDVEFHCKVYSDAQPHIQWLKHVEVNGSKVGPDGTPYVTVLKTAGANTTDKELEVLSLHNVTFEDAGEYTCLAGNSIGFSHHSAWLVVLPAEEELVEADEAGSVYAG
# [3] = molecular target: FGFR2b extracellular domain-Fc (human, UniProt P21802-3 22-378); assay: as above; details: protein: recombinant; tags: IgG1 Fc fusion; antiparallel G-quadruplex-like fold
# Sequence of FGFR2b extracellular domain-Fc (P21802 other isoform, or with tags, fused parts or gaps): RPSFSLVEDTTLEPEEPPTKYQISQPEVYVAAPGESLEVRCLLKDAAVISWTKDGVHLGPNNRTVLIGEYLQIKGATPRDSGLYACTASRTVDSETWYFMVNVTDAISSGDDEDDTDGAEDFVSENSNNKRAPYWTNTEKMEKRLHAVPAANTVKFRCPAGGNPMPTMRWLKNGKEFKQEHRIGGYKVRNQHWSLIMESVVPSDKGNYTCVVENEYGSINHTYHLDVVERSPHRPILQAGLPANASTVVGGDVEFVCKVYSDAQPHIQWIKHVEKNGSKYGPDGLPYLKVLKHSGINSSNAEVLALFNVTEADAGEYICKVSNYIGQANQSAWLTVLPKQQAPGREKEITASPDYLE
# [4] = molecular target: FGFR2c extracellular domain-Fc (human, UniProt P21802 22-377); assay: as above; details: protein: recombinant; tags: IgG1 Fc fusion; antiparallel G-quadruplex-like fold
# Sequence of FGFR2c extracellular domain-Fc (P21802 22-377): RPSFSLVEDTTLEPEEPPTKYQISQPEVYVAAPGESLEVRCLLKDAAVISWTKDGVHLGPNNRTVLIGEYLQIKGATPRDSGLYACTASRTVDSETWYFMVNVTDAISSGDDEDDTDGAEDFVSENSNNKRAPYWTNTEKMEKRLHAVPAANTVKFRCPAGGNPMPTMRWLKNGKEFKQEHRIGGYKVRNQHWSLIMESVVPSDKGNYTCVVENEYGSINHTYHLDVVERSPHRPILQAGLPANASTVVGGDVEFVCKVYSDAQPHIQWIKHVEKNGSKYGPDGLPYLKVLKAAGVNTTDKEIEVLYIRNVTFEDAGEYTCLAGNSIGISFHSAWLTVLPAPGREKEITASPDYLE
# [5] = molecular target: T1, FGFR4 extracellular domain-Fc; assay: as above; details: protein: recombinant; tags: IgG1 Fc fusion; antiparallel G-quadruplex-like fold
# [6] = molecular target: FGFR3b extracellular domain-Fc (human, UniProt P22607-2 23-377); assay: as above; details: protein: recombinant; tags: IgG1 Fc fusion; antiparallel G-quadruplex-like fold
# Sequence of FGFR3b extracellular domain-Fc (P22607 other isoform, or with tags, fused parts or gaps): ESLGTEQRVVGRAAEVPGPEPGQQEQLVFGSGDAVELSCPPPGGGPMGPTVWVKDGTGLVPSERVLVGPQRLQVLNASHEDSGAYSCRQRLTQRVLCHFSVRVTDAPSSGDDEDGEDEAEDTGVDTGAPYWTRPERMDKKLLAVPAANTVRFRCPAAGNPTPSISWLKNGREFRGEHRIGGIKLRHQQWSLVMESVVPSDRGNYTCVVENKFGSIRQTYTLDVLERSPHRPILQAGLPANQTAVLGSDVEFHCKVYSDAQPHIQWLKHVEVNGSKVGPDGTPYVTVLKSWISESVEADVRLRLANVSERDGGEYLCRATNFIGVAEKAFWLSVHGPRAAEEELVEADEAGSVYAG
# [7] = molecular target: T2, FGFR1c extracellular domain-Fc (human, UniProt P11362-1 22-376); assay: BLI; 2 mM Mg2+; BLI (Octet K2, protein A sensor, FGFR-Fc 5 ug/mL), VZ23 31.25-500 nM in PBS (8.1 mM Na2HPO4, 1.5 mM NaH2PO4, 137 mM NaCl, 2.7 mM KCl as given for NMR) with or without 2 mM MgCl2; pH 7.3 (stated for CD); temperature not stated; details: protein: recombinant; tags: IgG1 Fc fusion; antiparallel G-quadruplex-like fold
# T2 sequence (P11362 22-376): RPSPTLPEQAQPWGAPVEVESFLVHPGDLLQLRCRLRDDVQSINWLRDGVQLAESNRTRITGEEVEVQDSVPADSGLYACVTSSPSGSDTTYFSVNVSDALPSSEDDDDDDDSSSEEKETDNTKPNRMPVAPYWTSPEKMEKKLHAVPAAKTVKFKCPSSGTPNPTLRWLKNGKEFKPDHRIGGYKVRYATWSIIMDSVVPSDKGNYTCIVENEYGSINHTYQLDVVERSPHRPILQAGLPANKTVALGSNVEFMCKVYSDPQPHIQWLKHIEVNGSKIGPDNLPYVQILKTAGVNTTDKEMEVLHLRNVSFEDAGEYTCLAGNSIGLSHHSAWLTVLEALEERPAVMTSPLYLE
# [8] = molecular target: T2, FGFR1c extracellular domain-Fc; assay: BLI; PBS, no Mg2+; BLI (Octet K2, protein A sensor, FGFR-Fc 5 ug/mL), VZ23 31.25-500 nM in PBS (8.1 mM Na2HPO4, 1.5 mM NaH2PO4, 137 mM NaCl, 2.7 mM KCl as given for NMR) with or without 2 mM MgCl2; pH 7.3 (stated for CD); temperature not stated; details: protein: recombinant; tags: IgG1 Fc fusion; antiparallel G-quadruplex-like fold
# [9] = molecular target: FGFR1c extracellular domain-Fc;FGF1 (human;human, UniProt P11362-1;P05230 22-376;16-155, |); assay: BLI; preformed FGF1:FGFR1c complex; 250 nM each; BLI (Octet K2, protein A sensor, FGFR-Fc 5 ug/mL), VZ23 31.25-500 nM in PBS (8.1 mM Na2HPO4, 1.5 mM NaH2PO4, 137 mM NaCl, 2.7 mM KCl as given for NMR) with or without 2 mM MgCl2; pH 7.3 (stated for CD); temperature not stated; details: protein: recombinant;commercial; tags: IgG1 Fc fusion;; antiparallel G-quadruplex-like fold
# Sequence of FGFR1c extracellular domain-Fc;FGF1 (P11362 22-376, chain 1 of 2): as the sequence (P11362 22-376) above
# Sequence of FGFR1c extracellular domain-Fc;FGF1 (P05230 16-155, chain 2 of 2): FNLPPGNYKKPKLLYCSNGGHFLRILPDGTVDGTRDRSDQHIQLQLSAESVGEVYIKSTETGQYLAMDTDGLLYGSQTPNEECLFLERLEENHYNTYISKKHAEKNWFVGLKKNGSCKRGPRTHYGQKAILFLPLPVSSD
Molecule,Kd ([1]; 2 mM Mg2+),"Kd ([1]; PBS, no Mg2+)",binding result [2],binding result [3],binding result [4],binding result [5],binding result [6],Kd [7],Kd [8],binding result [9]
GGGATACAGGGCTTTGTCTATGGTGTGGATGGCGGATACC [VZ23],29.8 nM,54.6 nM,–,–,–,–,–,–,–,–
GGGATACAGGGCTTTGTCTATGGTGTGGATGGCGGATACC (structured_DNA) [VZ23],–,–,no binding,no binding,no binding,no binding,no binding,65.4 ± 5.5 nM,162 ± 48.7 nM,binds
